# Biological target: CREB1 (recombinant, Ni-affinity purified) (UniProt P16220 1-327)
# Test: EMSA; LightShift EMSA kit: 2 ul 5x binding buffer, 6 ul CREB1, 1 ul probe, 25 C, 20 min; salt and pH not stated
# Settings: protein: recombinant; (Ni-chelating purification); chain copies: 2; label: 5' 6-FAM (FITC) on forward strand (Methods); blunt
# Chain of CREB1 (recombinant, Ni-affinity purified) (P16220 whole entry): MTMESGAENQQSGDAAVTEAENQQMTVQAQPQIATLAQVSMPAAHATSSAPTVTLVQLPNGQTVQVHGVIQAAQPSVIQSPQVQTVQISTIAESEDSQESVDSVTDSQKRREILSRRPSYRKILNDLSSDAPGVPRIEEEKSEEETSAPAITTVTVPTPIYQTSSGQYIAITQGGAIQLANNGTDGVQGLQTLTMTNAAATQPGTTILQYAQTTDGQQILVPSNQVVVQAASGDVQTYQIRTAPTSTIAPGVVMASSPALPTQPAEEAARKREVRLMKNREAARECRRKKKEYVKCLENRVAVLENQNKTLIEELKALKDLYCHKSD
binder,measurement,value
MITF-wt probe (dsDNA) DNA 1: TGGATGTCTTTTCTGATGTGAAATTAAA DNA 2: TTTAATTTCACATCAGAAAAGACATCCA,binding result,binds

# Reference: PMC9576935, “MiR-585-5p impedes gastric cancer proliferation and metastasis by orchestrating the interactions among CREB1, MAPK1 and MITF”
